What all share (experiment): cell_activity
The test system of one series is ZFN 25717 (synthetic). Conditions: pair 25716/25717, maize; text states 380 times control.
The next series concerns ZFN 29730 (synthetic). Conditions: pair 29732/29730, donor pDAS000152 10:1, A-genome (B 6306, D 7911), wheat SEC protoplasts.
A further series concerns ZFN 25712 (synthetic). Conditions: pair 25712/25713, maize.
Another series relates to ZFN 25686 (synthetic). Conditions: pair 25686/25687, maize.
A further series relates to ZFN 25687 (synthetic). Conditions: pair 25686/25687, maize.
The test system of another series is ZFN 25689 (synthetic). Conditions: pair 25688/25689, maize.
In the next series the test system is ZFN 29732 (synthetic). Conditions: pair 29732/29730, donor pDAS000152 10:1, A-genome (B 6306, D 7911), wheat SEC protoplasts.
The test system of a further series is ZFN 25716 (synthetic). Conditions: pair 25716/25717, maize; text states 380 times control.
For a further series, the system named is ZFN 25713 (synthetic). Conditions: pair 25712/25713, maize.
In another series the test system is ZFN 25688 (synthetic). Conditions: pair 25688/25689, maize.

From patent publication US20130326645 come the findings set out here.

The sequence “CGGAAGCGGATGGCCCGCTTCTTTAGAA (double strand) [25717 site]” came in with an activity (% of IPPK2 ZFN activity as printed) with ZFN 25717 (synthetic) of 380.
In the series on ZFN 29730 (synthetic), “AGGCAGCACGTGCTCCTGATGCGGGACT (double strand) [29730 site]” gave an activity (ppm NHEJ editing) of 6720.
The sequence “ATCGGGCATCGGCGACTGATGAGCCTTG (double strand) [25712 site]” came in with an activity (% of IPPK2 ZFN activity) in the series on ZFN 25712 (synthetic) of 69.
On to “CACAACAAGACTGCGGGTTCGGTGGCGC (double strand) [25686 site]”, for which the activity (% of IPPK2 ZFN activity) in the series on ZFN 25686 (synthetic) stood at 32.
Sequence “GATAGGTGGCAGTGGCAGTGGCACTGGC (double strand) [25687 site]” gave an activity (% of IPPK2 ZFN activity) with ZFN 25687 (synthetic) of 32.
As for “TGGCAGTGGCAGTGGCACTGGCACGGCA (double strand) [25689 site]”, the activity (% of IPPK2 ZFN activity) in the series with ZFN 25689 (synthetic) stood at 108.
Take “GATCCCAAGCGGTGGTGCTTTCAAGGAC (double strand) [29732 site]”: the activity (ppm NHEJ editing) in the series on ZFN 29732 (synthetic) worked out at 6720.
“TGATCGCATCGGGCATCGGCGACTGATG (double strand) [25716 site]” came in with an activity (% of IPPK2 ZFN activity as printed) in the series with ZFN 25716 (synthetic) of 380.
Turning to “GATCAACGGAAGCGGATGGCCCGCTTCT (double strand) [25713 site]”, in the series with ZFN 25713 (synthetic), the activity (% of IPPK2 ZFN activity) came to 69.
For the sequence “TATCGGCACAACAAGACTGCGGGTTCGG (double strand) [25688 site]”, the activity (% of IPPK2 ZFN activity) in the series with ZFN 25688 (synthetic) is 108.
